Laboratory results taken from patent publication US10358467B2, “Therapeutic targets for cancer progression” (The Regents of the University of California, priority 2015, dated 2019).
Substitutions are numbered along the chain they refer to. In names and notes the source's numbering stands.

B1: His-GIV-CT: His-GIV-CT (aa 1660-1870, containing its GEF motif) (protein)
chain: ISETLESRHHKIKTGSPGSEVVTLQQFLEESNKLTSVQIKSSSQENLLDEVMKSLSVSSDFLGKDKPVSCGLARSVSGKTPGDFYDRRTTKPEFLRPGPRKTEDTYFISSAGKPTPGTQGKIKLVKESSLSRQSKDSNPYATLPRASSVISTAEGTTRRTSIHDFLTKDSRLPISVDSPPAAADSNTTAASNVDKVQESRNSKSRSREQQS
modifications: left off: small tags and cut ends
B2: DAPLE-V2-WT: short isoform of DAPLE (SEQ ID NO: 23, 552 aa) expressed in cells (protein, listed as Homo sapiens)
chain: MSVLSPGDLKPKRGSPHRGSLDRTDASTDLAMRSWPSELGSRTCSTSATTTAPSNSTPIARHPGRTKGYNSDDNLCEPSLEFEVPNHRQYVSRPSSLESSRNTSSNSSPLNLKGSSEQLHGRSESFSSEDLIPSRDLATLPREASTPGRNALGRHEYPLPRNGPLPQEGAQKRGTAPPYVGVRPCSASPSSEMVTLEEFLEESNRSSPTHDTPSCRDDLLSDYFRKASDPPAIGGQPGPPAKKEGAKMPTNFVAPTVKMAAPTSEGRPLKPGQYVKPNFRLTEAEAPPSVAPRQAQPPQSLSLGRPRQAPVPPASHAPASRSASLSRAFSLASADLLRASGPEACKQESPQKLGAPEALGGRETGSHTLQSPAPPSSHSLARERTPLVGKAGSSCQGPGPRSRPLDTRRFSLAPPKEERLAPLHQSATAPAIATAGAGAAAAGSGSNSQLLHFSPAAAPAARTKPKAPPRSGEVATITPVRAGLSLSEGDGVPGQGCSEGLPAKSPGRSPDLAPHLGRALEDCSRGSVSKSSPASPEPGGDPQTVWYEYGCV
modifications: myc tag
B3: DAPLE-V2-FA: DAPLE-V2 with F194A mutation disrupting Gαi3 binding, expressed in cells (protein)
chain: B2 chain with F199A
modifications: left off: small tags and cut ends

Tests used:
[1] = biological target: T1, GST-Gαi3 (Rattus norvegicus, UniProt P08753); assay: Competition with His-DAPLE-CT for binding to GST-Gαi3 (pulldown)
T1 construct: made in house; host or cells: E. coli BL21 (DE3)
T1 sequence (P08753 whole entry): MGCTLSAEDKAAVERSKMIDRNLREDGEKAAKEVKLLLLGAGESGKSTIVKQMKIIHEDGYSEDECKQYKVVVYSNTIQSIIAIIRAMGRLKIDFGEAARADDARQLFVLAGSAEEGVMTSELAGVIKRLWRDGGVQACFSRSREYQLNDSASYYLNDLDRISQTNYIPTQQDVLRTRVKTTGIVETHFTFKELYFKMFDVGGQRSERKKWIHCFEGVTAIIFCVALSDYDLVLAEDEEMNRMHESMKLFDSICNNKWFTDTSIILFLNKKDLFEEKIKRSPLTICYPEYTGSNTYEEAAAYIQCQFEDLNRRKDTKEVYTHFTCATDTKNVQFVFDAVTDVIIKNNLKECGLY
Description: Purified GST-Gαi3 or GST alone (5 μg) were immobilized on glutathione-Sepharose beads and incubated with binding buffer [50 mM Tris-HCl (pH 7.4), 100 mM NaCl, 0.4% (v:v) Nonidet P-40, 10 mM MgCl2, 5 mM EDTA, 30 μM GDP, 2 mM DTT, protease inhibitor mixture] for 90 min at room temperature as described before (Garcia-Marcos et al, 2011a; Ghosh et al, 2010; Ghosh et al, 2008; Lin et al, 2011). Lysates (˜250 μg) of Cos7 cells expressing appropriate myc-DAPLE constructs or purified His-DAPLE-CT (aa 1650-2028) protein (3 μg) were added to each tube, and binding reactions were carried out for 4 h at 4° C. with constant tumbling in binding buffer [50 mM Tris-HCl (pH 7.4), 100 mM NaCl, 0.4% (v:v) Nonidet P-40, 10 mM MgCl2, 5 mM EDTA, 30 μM GDP, 2 mM DTT]. Beads were washed (4×) with 1 mL of wash buffer [4.3 mM Na2HPO4, 1.4 mM KH2PO4 (pH 7.4), 137 mM NaCl, 2.7 mM KCl, 0.1% (v:v) Tween 20, 10 mM MgCl2, 5 mM EDTA, 30 μM GDP, 2 mM DTT] and boiled in Laemmli's sample buffer. In some experiments the ‘active’ conformation of the G protein was stabilized by replacing GDP in the binding and wash buffers with 30 μM GTPγS or a mixture of 30 μM GDP/30 μM AlCl3/10 mM NaF. Immunoblot quantification was performed by infrared imaging following the manufacturer's protocols using an Odyssey imaging system (Li-Cor Biosciences).

[2] = test system: DLD1 cells; assay: Anchorage-dependent tumor growth assay; format: cell-based, human; details: DLD1 cells stably expressing constructs, 2-3 weeks
Description: Anchorage-dependent growth was monitored on solid (plastic) surface as described previously (Franken et al, 2006). Briefly, anchorage-dependent growth was monitored on solid (plastic) surface. Approximately ˜1000 DLD1 cells stably expressing various DAPLE constructs were plated in 6-well plates and incubated in 5% CO2 at 37° C. for ˜2 weeks in 0.2% FBS growth media. Colonies were then stained with 0.005% crystal violet for 1 h. The remaining DLD1 cells were lysed and analyzed by immunoblotting to confirm DAPLE construct expression. Each experiment was analyzed in triplicate.

[3] = test system: NIH3T3 cells; assay: 3D spheroid matrigel invasion assay; format: cell-based; details: in response to Wnt5a
Description: NIH3T3 cell invasion assay in 3D culture was performed according to the manufacturer's protocol (Trevigen, Cultrex 3D Spheroid BME Cell Invasion Assay, catalog #3500-096-K). Briefly, non-invasive NIH3T3 cells (˜3000 cells) transfected with empty vector (control) or myc-DAPLEconstructs were incubated first in the Spheroid Formation extracellular matrix (ECM) containing 0.2% FBS for 3 days. Invasion matrix was then added and layered on top with media containing FBS. […] Photographs were analyzed and pseudocolored by Image J to reflect cell density.

[4] = test system: β-Catenin/TCF/LEF pathway in DLD1 7TGP cells; assay: β-Catenin reporter assay (7TGP); format: cell-based, human; details: stable expression, starved and stimulated with Wnt5a, versus vector control
Description: These assays were carried out using the well-established reporter 7×Tcf-eGFP (7TGP) (Fuerer & Nusse, 2010). Stable cells lines expressing this reporter were generated by lentiviral transduction and subsequent selection using standard procedures. Lentiviral infection and selection were performed according to standard procedures. Briefly, 10 cm plates DLD1 cells at 70% confluency were incubated with media containing 8 μg/mL polybrene and 10 μl of lentivirus for 6 h. After 24 hours post infection, selection of puromycin-resistant clones was initiated by adding the antibiotic at 2 μg/ml final concentration. The resultant DLD1-7TGP stable cells were subsequently transfected with various myc-DAPLE constructs and selected for G418 resistance as described earlier in methods. The DLD1-7TGP cells stably expressing myc-DAPLE were incubated overnight at 0.2% FBS, analyzed by fluorescence microscopy, and photographed prior to lysis. Whole cell lysates samples were then boiled in Laemmli's sample buffer and GFP protein expression was monitored by immunoblotting.

Molecule	competition with His-DAPLE-CT for binding to GST-Gαi3 [1]	adherent colonies per well (tumor growth) [2]	invasion of matrigel by spheroids [3]	eGFP signal (Wnt transcriptional activity) [4]
KB-752: synthetic GEF peptide similar to the GBA motif (SRVTWYDFLMEDTKSR) [reference compound]	competed	–	–	–
B1	competed	–	–	–
B2	–	can inhibit tumor growth	Neither the WT nor the FA mutant of DAPLE-V2 could trigger invasion	showed inhibition of eGFP
B3	–	–	Neither the WT nor the FA mutant of DAPLE-V2 could trigger invasion	not
